Test [1] concerns the target T1, human CD7 expressed on cells (human, UniProt P09564 26-240).
T1 sequence (looked up): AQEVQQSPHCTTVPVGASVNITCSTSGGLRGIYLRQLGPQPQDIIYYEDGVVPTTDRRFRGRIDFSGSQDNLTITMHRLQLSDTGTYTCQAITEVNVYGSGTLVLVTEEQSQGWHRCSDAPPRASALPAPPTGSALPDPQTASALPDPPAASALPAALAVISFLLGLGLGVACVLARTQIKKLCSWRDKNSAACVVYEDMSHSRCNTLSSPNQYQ
Briefly: cell-based or functional assay.

Test [2] addresses T1, human CD7 expressed on cells. In words: cell-based or functional assay. This is another data set of the same source.
Test [3] concerns the target T2, recombinant protein of the human CD7 extracellular domain, CD7-His (human, UniProt P09564 26-180).
T2 construct: range 25-645; also called human CD7-His protein; recombinant human CD7; not shown: His protein tag
T2 sequence (looked up): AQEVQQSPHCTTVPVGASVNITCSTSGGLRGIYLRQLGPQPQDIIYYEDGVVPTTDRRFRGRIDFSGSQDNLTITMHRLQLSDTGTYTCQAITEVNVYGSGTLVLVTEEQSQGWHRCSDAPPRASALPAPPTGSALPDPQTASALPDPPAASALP
In words: SPR Biacore T200, antibody captured via Fc, human CD7 as analyte.

Test [4] addresses T3, mouse CD7 (ACROBiosystems, CD7-M52H3) (mouse, UniProt P50283 24-150).
T3 construct: Bought recombinant protein; also called Mouse CD7 protein
T3 sequence (looked up): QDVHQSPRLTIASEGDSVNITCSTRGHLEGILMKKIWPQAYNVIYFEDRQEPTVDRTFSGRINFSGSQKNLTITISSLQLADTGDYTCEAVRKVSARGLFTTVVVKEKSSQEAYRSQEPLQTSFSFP
In words: indirect ELISA, plate coated with 1 µg/ml mouse CD7.

Test [5] concerns the target T2, recombinant protein of the human CD7 …. Briefly: indirect ELISA, plate coated with 1 µg/ml human CD7, anti-human IgG Fc-HRP.

The values that follow come from patent EP4748858A1 (Nanjing Probio Biotech Co., Ltd., dated 2026).

B1: AHP19509-VHH1 CAR (other)
chain: EVQLVESGGGLVQPGGSLRLSCAASGGTFNRYTMGWFRQAPGKEREFVSAISWSGGSTDYADSVKGRFTISRDNSKNTLYLQMNSLRAEDTAVYYCDTDRMPYRPVAAGILSWEANWGQGTLVTVSSGGGSGGGSGGGSGGGSEVQLVESGGGLVQPGGSLRLSCAASGGTFNRYTMGWFRQAPGKEREFVSAISWSGGSTDYADSVKGRFTISRDNSKNTLYLQMNSLRAEDTAVYYCDTDRMPYRPVAAGILSWEANWGQGTLVTVSSAAADYKDDDDKIEVMYPPPYLDNEKSNGTIIHVKGKHLCPSPLFPGPSKPFWVLVVVGGVLACYSLLVTVAFIIFWVRSKRSRLLHSDYMNMTPRRPGPTRKHYQPYAPPRDFAAYRSRVKFSRSADAPAYQQGQNQLYNELNLGRREEYDVLDKRRGRDPEMGGKPRRKNPQEGLYNELQKDKMAEAYSEIGMKGERRRGKGHDGLYQGLSTATKDTYDALHMQALPPR
Consider B1, for which, in test [1], the “% Cytotoxicity of CAR-T cells against Jurkat/Luc, E/T = 1 : 1” value was 62.4%; the “% Cytotoxicity of CAR-T cells against Jurkat/Luc, E/T = 5 : 1” value was determined as 93%; the “% Cytotoxicity of CAR-T cells against Jurkat/Luc, E/T = 20 : 1” value is 99.6%. In test [2], the “% Cytotoxicity of CAR-T cells against CCRF-CEM/Luc, E/T = 1 : 1” value was determined as 74.8%; the “% Cytotoxicity of CAR-T cells against CCRF-CEM/Luc, E/T = 5 : 1” value stood at 60.2%; the “% Cytotoxicity of CAR-T cells against CCRF-CEM/Luc, E/T = 20 : 1” value is 84.6%.

B2: VHH6 CAR (other)
chain: DVQLQESGGGLVQAGGSLRLSCAVSGYPYSSYCMGWFRQAPGKEREGVAAIDSDGRTRYADSVKGRFTISQDNAKNTLYLQMNRMKPEDTAMYYCAARFGPMGCVDLSTLSFGHWGQGTQVTVSITGGGGSGGGGSGGGGSGGGGSDVQLQESGGGLVQAGGSLRLSCAVSGYPYSSYCMGWFRQAPGKEREGVAAIDSDGRTRYADSVKGRFTISQDNAKNTLYLQMNRMKPEDTAMYYCAARFGPMGCVDLSTLSFGHWGQGTQVTVSITAAADYKDDDDKIEVMYPPPYLDNEKSNGTIIHVKGKHLCPSPLFPGPSKPFWVLVVVGGVLACYSLLVTVAFIIFWVRSKRSRLLHSDYMNMTPRRPGPTRKHYQPYAPPRDFAAYRSRVKFSRSADAPAYQQGQNQLYNELNLGRREEYDVLDKRRGRDPEMGGKPRRKNPQEGLYNELQKDKMAEAYSEIGMKGERRRGKGHDGLYQGLSTATKDTYDALHMQALPPR
For B2, in test [1], the “% Cytotoxicity of CAR-T cells against Jurkat/Luc, E/T = 1 : 1” value came out at 43.4%; the “% Cytotoxicity of CAR-T cells against Jurkat/Luc, E/T = 5 : 1” value stood at 67.2%; the “% Cytotoxicity of CAR-T cells against Jurkat/Luc, E/T = 20 : 1” value is 93.6%. For the same molecule, in test [2], the “% Cytotoxicity of CAR-T cells against CCRF-CEM/Luc, E/T = 1 : 1” value amounted to 74.5%; the “% Cytotoxicity of CAR-T cells against CCRF-CEM/Luc, E/T = 5 : 1” value was 51.2%; the “% Cytotoxicity of CAR-T cells against CCRF-CEM/Luc, E/T = 20 : 1” value turned out to be 71.1%.

B3: AHP19485-VHH1 (Fc fusion)
chain: EVQLVESGGGLVQPGGSLRLSCAASERIFSIHAMGWYRQAPGKQRELVSSITIGGSTHYADSVKGRFTISRDNSKNTLYLQMNSLRAEDTAVYYCNSMLLAGTVGGSWGQGTLVTVSS
notes: Humanized VHH of AHP19485 expressed as fusion to human IgG1 Fc; not shown: human IgG1 Fc of expression vector pcDNA3.4-Fc (Human IgG1)
In the case of B3, in test [3], the dissociation constant Kd was determined as 0.131 nM, the koff worked out at 3.18e-05 s⁻¹ and the association rate constant (kon) worked out at 243000 M⁻¹ s⁻¹.

B4: AHP19509-VHH1 (Fc fusion)
chain: EVQLVESGGGLVQPGGSLRLSCAASGGTFNRYTMGWFRQAPGKEREFVSAISWSGGSTDYADSVKGRFTISRDNSKNTLYLQMNSLRAEDTAVYYCDTDRMPYRPVAAGILSWEANWGQGTLVTVSS
notes: Humanized VHH of AHP19509 expressed as fusion to human IgG1 Fc; not shown: human IgG1 Fc of expression vector pcDNA3.4-Fc (Human IgG1)
In the case of B4, in test [3], the equilibrium dissociation constant (Kd) is 0.1 nM, the koff was 3.04e-05 s⁻¹ and the kon came to 304000 M⁻¹ s⁻¹.

B5: AHP19508 (Fc fusion)
chain: AVQLVDSGGGLVQPGGSLRLSCAASGDFARLYEMAWYRQTPGQQREVVAQITVGGSTKYADSVKGRFTISRDSAKNTVYLQMNSLRPEDTAVYYCHAWPALWGQGTQVTVSS
notes: Alpaca VHH expressed as fusion to human IgG1 Fc; not shown: human IgG1 Fc of expression vector pcDNA3.4-Fc (HuIgG1)
Consider B5, for which, in test [4], the binding result is “no binding (tested: 8 µg/ml (about 100 nM))”. In addition, the EC50 in test [5] turned out to be 0.2 nM.

B6: AHP19484-VHH3 CAR (other)
chain: QVQLVESGGGLVKPGGSLRLSCAASGSSFHFAFMGWYRQAPGKQRELVADISPGNSTNYADPVKGRFTISRDNAKNSLYLQMNSLRAEDTAVYFCRDLRSWGAWGQGTLVTVSSGGGSGGGSGGGSGGGSQVQLVESGGGLVKPGGSLRLSCAASGSSFHFAFMGWYRQAPGKQRELVADISPGNSTNYADPVKGRFTISRDNAKNSLYLQMNSLRAEDTAVYFCRDLRSWGAWGQGTLVTVSSAAADYKDDDDKIEVMYPPPYLDNEKSNGTIIHVKGKHLCPSPLFPGPSKPFWVLVVVGGVLACYSLLVTVAFIIFWVRSKRSRLLHSDYMNMTPRRPGPTRKHYQPYAPPRDFAAYRSRVKFSRSADAPAYQQGQNQLYNELNLGRREEYDVLDKRRGRDPEMGGKPRRKNPQEGLYNELQKDKMAEAYSEIGMKGERRRGKGHDGLYQGLSTATKDTYDALHMQALPPR
On to B6, for which, in test [1], the “% Cytotoxicity of CAR-T cells against Jurkat/Luc, E/T = 1 : 1” value was 60.5%; the “% Cytotoxicity of CAR-T cells against Jurkat/Luc, E/T = 5 : 1” value was found to be 94.5%; the “% Cytotoxicity of CAR-T cells against Jurkat/Luc, E/T = 20 : 1” value amounted to 100%. For the same molecule, in test [2], the “% Cytotoxicity of CAR-T cells against CCRF-CEM/Luc, E/T = 1 : 1” value is 69.7%; the “% Cytotoxicity of CAR-T cells against CCRF-CEM/Luc, E/T = 5 : 1” value came out at 64.9%; the “% Cytotoxicity of CAR-T cells against CCRF-CEM/Luc, E/T = 20 : 1” value turned out to be 94.1%.

B7: AHP19485-VHH1 CAR (other)
chain: EVQLVESGGGLVQPGGSLRLSCAASERIFSIHAMGWYRQAPGKQRELVSSITIGGSTHYADSVKGRFTISRDNSKNTLYLQMNSLRAEDTAVYYCNSMLLAGTVGGSWGQGTLVTVSSGGGSGGGSGGGSGGGSEVQLVESGGGLVQPGGSLRLSCAASERIFSIHAMGWYRQAPGKQRELVSSITIGGSTHYADSVKGRFTISRDNSKNTLYLQMNSLRAEDTAVYYCNSMLLAGTVGGSWGQGTLVTVSSAAADYKDDDDKIEVMYPPPYLDNEKSNGTIIHVKGKHLCPSPLFPGPSKPFWVLVVVGGVLACYSLLVTVAFIIFWVRSKRSRLLHSDYMNMTPRRPGPTRKHYQPYAPPRDFAAYRSRVKFSRSADAPAYQQGQNQLYNELNLGRREEYDVLDKRRGRDPEMGGKPRRKNPQEGLYNELQKDKMAEAYSEIGMKGERRRGKGHDGLYQGLSTATKDTYDALHMQALPPR
For the molecule B7, in test [1], the “% Cytotoxicity of CAR-T cells against Jurkat/Luc, E/T = 1 : 1” value came to 29.7%; the “% Cytotoxicity of CAR-T cells against Jurkat/Luc, E/T = 5 : 1” value was found to be 86%; the “% Cytotoxicity of CAR-T cells against Jurkat/Luc, E/T = 20 : 1” value amounted to 99.4%. In addition, in test [2], the “% Cytotoxicity of CAR-T cells against CCRF-CEM/Luc, E/T = 1 : 1” value was 57.4%; the “% Cytotoxicity of CAR-T cells against CCRF-CEM/Luc, E/T = 5 : 1” value was determined as 61.2%; the “% Cytotoxicity of CAR-T cells against CCRF-CEM/Luc, E/T = 20 : 1” value was determined as 78.2%.

B8: AHP19481 (Fc fusion)
chain: AVQLVDSGGGLVQPGGSLRLSCAASGFTFSGFAMSWYRQAPGKERELVATISRFGESSNYEDSVKGRFTISRDNAKDTGYLQMNSLKPEDTAVYYCNAEAPAGSLWYGNNYWGQGTQVTVSS
notes: as for B5
As to B8, the binding result in test [4] is listed as “no binding (tested: 8 µg/ml (about 100 nM))”. Further, the concentration giving a half-maximal response (EC50) in test [5] is 0.238 nM.

B9: AHP19490 (Fc fusion)
chain: QVQLVESGGGLVQPGGSLRLSCAASGFTFSGFDMSWYRQAPGKERELVATISRFGGSSNYEDSVKGRFTISRDNVKDTVYLQMNSLKPEDTAVYYCYALAPAGSLWHGDNYWGQGTQVTVSS
notes: as for B5
Take B9: the binding result in test [4] is “no binding (tested: 8 µg/ml (about 100 nM))”. In test [5], the EC50 came out at 0.268 nM.

B10: AHP19472 (Fc fusion)
chain: AVQLVDSGGGLVQPGGSLGLSCAASGFTFSGFDMSWYRQAPGKERMLVATITRFGGSSNYEDSVKGRFTISRDNARDTVYLQMNSLKPEDTAMYYCHAEAPAGSLWFGNNYWGQGTQVTVSS
notes: Alpaca VHH expressed as fusion to human IgG1 Fc in HEK293-6E; not shown: human IgG1 Fc of expression vector pcDNA3.4-Fc (HuIgG1)
For B10, in test [4], the binding result is listed as “no binding (tested: 8 µg/ml (about 100 nM))”. For the same molecule, the half-maximal effective concentration (EC50) in test [5] came out at 0.179 nM.

B11: AHP19484-VHH3 (Fc fusion)
chain: QVQLVESGGGLVKPGGSLRLSCAASGSSFHFAFMGWYRQAPGKQRELVADISPGNSTNYADPVKGRFTISRDNAKNSLYLQMNSLRAEDTAVYFCRDLRSWGAWGQGTLVTVSS
notes: Humanized VHH of AHP19484 expressed as fusion to human IgG1 Fc; not shown: human IgG1 Fc of expression vector pcDNA3.4-Fc (Human IgG1)
As for B11, in test [3], the Kd is 0.118 nM, the koff worked out at 5.19e-05 s⁻¹ and the on-rate constant (kon) came to 440000 M⁻¹ s⁻¹.

B12: AHP19495 (Fc fusion)
chain: AVQLVESGGGLVQPGGSLRLSCAASGFTASRDVMSWYRQPPGKERELVASIFSAGSKETYAESVKGRFTISIDNVKNTVNLQMDNLKPEDTAVYYCHRWPGYWGQGTQVTVSS
notes: as for B5
In the case of B12, in test [4], the binding result was “no binding (tested: 8 µg/ml (about 100 nM))”. In addition, the EC50 in test [5] turned out to be 0.158 nM.

B13: AHP19483 (Fc fusion)
chain: AVQLVDSGGGLVQAGGSLTLSCAASGRTFSRYTMGWFRQAPGKERELVASISWSGGSTDYADSVKDRFTISRDNTKNTVYLQMNGLKPEDTAVYYCNTDRMPYRPVVGGILSWEPYWGQGTQVTVTP
notes: as for B5
On to B13, for which the binding result in test [4] is “no binding (tested: 8 µg/ml (about 100 nM))”. Further, the EC50 in test [5] is 0.231 nM.

B14: AHP19511 (Fc fusion)
chain: AVQLVESGGGLVQPGGSLRLSCAASGFTFSNAVIGWYRQAPGKQRELVASITPGGRTTYPDSVKGRFIISRDNAKNTVYLEMNSLKLEDTAVYYCNDFRGLGGYWGQGTQVTVSS
notes: as for B5
Consider B14, for which the binding result in test [4] is “no binding (tested: 8 µg/ml (about 100 nM))”. Further, the EC50 in test [5] was found to be 0.166 nM.
